# B1: SEQ ID NO:3: amino acid residues 6 to 230 of full-length human ASK1 (SEQ ID NO:1), expressed as a (His)6/HA-tagged fusion peptide (protein, UniProt Q99683 6-230, looked up, fragment)
# chain: DEGITFSVPPFAPSGFCTIPEGGICRRGGAAAVGEGEEHQLPPPPPGSFWNVESAAAPGIGCPAATSSSSATRGRGSSVGGGSRRTTVAYVINEASQGQLVVAESEALQSLREACETVGATLETLHFGKLDFGETTVLDRFYNADIAVVEMSDAFRQPSLFYHLGVRESFSMANNIILYCDTNSDSLQSLKEIICQKNTMCTGNYTFVPYMITPHNKVYCCDSSF
# modifications: His6/HA tag
# B2: SEQ ID NO:7: amino acid residues 6 to 163 of the full-length human ASK1 sequence set forth in SEQ ID NO:1 (protein, UniProt Q99683 6-163, looked up, fragment)
# chain: DEGITFSVPPFAPSGFCTIPEGGICRRGGAAAVGEGEEHQLPPPPPGSFWNVESAAAPGIGCPAATSSSSATRGRGSSVGGGSRRTTVAYVINEASQGQLVVAESEALQSLREACETVGATLETLHFGKLDFGETTVLDRFYNADIAVVEMSDAFRQP
# B3: SEQ ID NO:8: amino acid residues 69 to 230 of the full-length human ASK1 sequence set forth in SEQ ID NO:1 (protein, UniProt Q99683 69-230, looked up, fragment)
# chain: AATSSSSATRGRGSSVGGGSRRTTVAYVINEASQGQLVVAESEALQSLREACETVGATLETLHFGKLDFGETTVLDRFYNADIAVVEMSDAFRQPSLFYHLGVRESFSMANNIILYCDTNSDSLQSLKEIICQKNTMCTGNYTFVPYMITPHNKVYCCDSSF
# Columns and labels:
# [1] = test system: ASK1-induced apoptosis in HeLa cells; experiment: β-gal cell morphology-based apoptosis assay: effect of MEK inhibition on Raf-1 inhibition of ASK1-induced cell death; parameters: species or system human; conditions: PD98059 60 μM for 18 h
# Procedure: FIG. 2B is a graphic summary of the effect of MEK inhibition by PD98059 on Raf-1 function. Six hours after transfection as in A, HeLa cells were treated with PD98059 (60 μM) or vehicle (DMSO) for 18 h before being stained with 5-bromo-4-chloro-3-indolyl-D-galactopyranoside and scored for apoptosis in a blind fashion. Specific apoptosis is derived by subtracting the level of apoptosis seen in pcDNA3-transfected cells. At least 500 cells were scored for each sample. Results shown are representative of three independent experiments.
# For the nuclear morphology assays (Zhang et al. (1999) Proc. Natl. Acad. Sci. USA 96:8511-8515), 2×10^5 HeLa cells were cultured in 35-mm dishes containing glass coverslips. […] Twenty-four hours later, cells on the glass coverslips were washed, fixed (0.5% glutaraldehyde/2% formaldehyde in PBS), stained with 4′,6-diamidino-2-phenylindole (DAPI) in Vectashield mounting medium (Vector Laboratories), and visualized by using a fluorescence microscope as described (Zhang et al. (1999) Proc. Natl. Acad. Sci. USA, 96:8511-8515). Transfected cells with fragmented nuclei were scored for apoptosis in a blind fashion. […] Twenty-four hours after transfection, cells were fixed, stained with 5-bromo-4-chloro-3-indolyl-β-D-galactopyranoside, and scored for apoptosis as described (Chang et al. (1998) Science 281:1860-1863). […]
# ERK1/2 activation = experiment: Western blot of ERK1/2 activation in HeLa cell lysates; assay type: cell-based, human; conditions: HeLa cells, 60 μM
# Procedure: Cell lysates from HeLa cells treated with 60 μM PD98059 or vehicle were probed by Western blotting with either an ERK1/2 activation-specific antibody (Upper; Cell Signaling Technology) or pan-ERK1/2 antibody (Lower; Cell Signaling Technology).
# To test the hypothesis that Raf-1 regulates ASK1-induced apoptosis through the MEK-ERK pathway, we used two widely used MEK antagonists, PD98059 and U0126 (Dudley et al. (1995) Proc. Natl. Acad. Sci. USA 92:7686-7689; Favata et al. (1998) J. Biol. Chem. 273:18623-18632). […] To confirm the observations with PD98059 and U0126, we used a dominant negative mutant of MEK1, MEK1dn, to interfere with MEK signaling (Sugimoto et al. (1998) EMBO J. 17:1717-1727).
# [2] = test system: Raf-1 prosurvival effects on ASK1-induced cell death in COS7 cells; experiment: DNA content-based flow cytometric apoptosis assay (sub-G0 fraction) in transfected COS7 cells; assay type: cell-based; conditions: COS7 cells cotransfected with HA-ASK1, Flag-Raf-1 and ASK1 truncation construct (0.3 μg), FIG. 8
# Procedure: FIG. 8 provides a graphic representation of data obtained from a DNA content-based flow cytometric apoptosis assay. The fraction of transfected cells with sub-G0 DNA content in each sample was quantified. The data presented are representative of three independent experiments.
# The DNA content-based apoptosis assay was performed with a fluorescence-activated cell sorter as described (Spector et al. (1997) Cells: A Laboratory Manual (Cold Spring Harbor Lab. Press, Plainview, N.Y.). Briefly, COS7 cells (2×10^5) were cotransfected with pEGFP-F (0.4 μg; CLONTECH) encoding a farnesylated eGFP and test plasmids (1.6 μg total). Twenty-four hours after transfection, total cells were trypsinized, resuspended in PBS, fixed in ice-cold ethanol followed by overnight incubation, treated with RNase A (Sigma-Aldrich), and stained with propidium iodide (Sigma-Aldrich). Samples were analyzed with a FACSort flow cytometer (Becton Dickinson). The DNA content of transfected cells was determined by using WINMDI 2.8 software (Trotter, Scripps Research Institute, La Jolla, Calif.).
# A DNA content-based flow cytometric apoptosis assay was performed to evaluate the effects of the ASK1 N-terminal domain truncation peptides on the prosurvival effects of Raf-1. COS7 cells were transfected with indicated plasmids encoding HA-ASK1 (1.0 μg), Flag-Raf-1 (0.3 μg) or ASK1 truncation constructs (0.3 μg) as indicated along with an EGFP-F expression vector (0.4 μg) as described.
# [3] = target: T1, protein-protein interaction between Raf-1 and ASK1 (Homo sapiens, UniProt P04049); experiment: Coimmunoprecipitation with anti-Raf-1 antibody and Western blot for ASK1 in transfectants expressing ASK1 N-terminal domain fusion peptides; assay type: cell-based; conditions: fusion peptide expressed in cells, FIG. 7
# T1 construct: expressed in transfected cells; host or cells: COS7
# Procedure: FIG. 7 is a Western blot analysis of Raf-1 immunoprecipitates obtained from transfectants comprising N-terminal domain truncation peptides.
# (§1) Forty-eight hours after transfection, 4×10^5 COS7 cells were lysed in 300 μl of lysis buffer (0.2% Nonidet P-40/10 mM Hepes, pH 7.4/150 mM NaCl/5 mM NaF/2 mM Na3VO4/5 mM Na4P2O7/10 μg/ml aprotonin/10 μg/ml leupeptin/1 mM phenylmethylsulfonyl fluoride). Cell extracts were clarified by centrifugation and used for immunoprecipitation with various antibodies and protein G-Sepharose (Amersham Pharmacia). Immunocomplexes were washed four times with lysis buffer containing 1% Nonidet P-40 or RIPA buffer (1% Nonidet P-40/0.5% sodium deoxycholate/0.1% SDS/137 mM NaCl/20 mM Tris.HCl, pH 7.5) and resolved on SDS/PAGE (12.5%) for Western blotting. The enzyme-linked immunoblotting procedures were performed essentially as described (Zhang et al. (1999) Proc. Natl. Acad. Sci. USA 96:8511-8515). Corresponding secondary antibodies were used against each primary antibody: horseradish peroxidase-conjugated goat anti-mouse IgG for monoclonal antibodies and horseradish peroxidase-conjugated goat anti-rabbit IgG for polyclonal antibodies (Santa Cruz Biotechnology). Cross-reacting materials were visualized by using the ECL detection reagents (Amersham Pharmacia).
# Coimmunoprecipitation experiments were performed using anti-Raf-1 antibody (RI9120, Transduction Laboratories) as described. […] Raf-1 immunoprecipitates were analyzed with antibodies specific for ASK1 and Raf-1 (upper panel). HA-ASK1 protein present in Raf-1 immunoprecipitates was probed with anti-ASK1 antibody H-300 (1:2000, Santa Cruz;). […] The effect of this disruption is manifested as the absence of ASK1 protein in the Raf-1 immunoprecipitates.
# Raf-1 = Raf-1 (Homo sapiens, UniProt P04049); experiment: Association of ASK1 N-terminal domain truncation peptides with Raf-1; assay type: binding; conditions: N-terminal domain fusion peptide
# Procedure: FIG. 6A provides a schematic representation of the ASK1 N-terminal domain truncation proteins used herein. Association of ASK1 mutants with Raf-1 is summarized. Positive interaction is represented by (+).
# as §1
# FIG. 6A provides a schematic representation of the ASK1 N-terminal domain truncation peptides used herein. Various truncation mutants of the ASK1 N-terminal domain were generated as shown and expressed as fusion proteins with a (His)6-tag at the N-terminus and an HA-tag at the C-terminus, except ASK-N69-163 which has the N-terminal (His)6-tag but a GST-tag at the C-terminus. Association of ASK1 mutants with Raf-1 is summarized. Positive interaction is represented by (+).
Molecule,Effect on the ability of Raf-1 to inhibit ASK1-induced cell death [1],Activation of ERK1/2 (ERK1/2 activation),Effect on Raf-1 prosurvival effects on ASK1-induced cell death [2],Disruption of the Raf-1/ASK1 interaction (ASK1 in Raf-1 immunoprecipitates) [3],Binding to Raf-1 (Raf-1)
COc1cccc(-c2cc(=O)c3ccccc3o2)c1N [PD98059],did not decrease the ability of Raf-1 to inhibit ASK1-induced cell death,diminished the activation of ERK1/2,–,–,–
B1,–,–,eliminates Raf-1 prosurvival effects on ASK1-induced cell death,disrupts the protein-protein interaction between Raf-1 and ASK1,ability to bind Raf-1
B2,–,–,eliminates Raf-1 prosurvival effects on ASK1-induced cell death,disrupts the protein-protein interaction between Raf-1 and ASK1,ability to bind Raf-1
B3,–,–,eliminates Raf-1 prosurvival effects on ASK1-induced cell death,disrupts the protein-protein interaction between Raf-1 and ASK1,ability to bind Raf-1
